Source: patent US20160038588A1, “Myostatin Antagonism in Human Subjects” (AMGEN INC., priority 2013, published 2016)

Tested on: men with prostate cancer receiving ADT
Test: Clinical study: safety (adverse events, laboratory variables, ECG, vital signs)
Format: in vivo, human
Details: for DEATHS ON STUDY: during study or within 30 days of last dose
Protocol: Adverse events and concomitant medications were recorded at all study visits.
For safety analyses, all subjects who received AMG 745 or placebo were included and placebo-treated subjects from all cohorts were combined to form a composite placebo group.

[1] = 0.3 mg/kg SC 4-Week Dosing (N = 6)
[2] = 1.0 mg/kg SC 4-Week Dosing (N = 6)
[3] = 3.0 mg/kg SC 4-Week Dosing (N = 19)

AMG 745: anti-myostatin peptibody: human IgG1 Fc fused at C-terminus via GGGGGAQ linker to peptide SEQ ID NO:311; chain SEQ ID NO:635
ALL ADVERSE EVENTS [1]: 5 (83) n (%)
ALL TREATMENT-RELATED ADVERSE EVENTS [1]: 1 (17) n (%)
INVESTIGATIONAL PRODUCT DISCONTINUATIONS DUE TO ADVERSE EVENTS [1]: 0 (0) n (%)
STUDY DISCONTINUATIONS DUE TO ADVERSE EVENTS [1]: 0 (0) n (%)
Serious adverse events (all adverse events) [1]: 0 (0) n (%)
Serious adverse events (treatment-related) [1]: 0 (0) n (%)
DEATHS ON STUDY [1]: 0 (0) n (%)
ALL ADVERSE EVENTS [2]: 5 (83) n (%)
ALL TREATMENT-RELATED ADVERSE EVENTS [2]: 3 (50) n (%)
INVESTIGATIONAL PRODUCT DISCONTINUATIONS DUE TO ADVERSE EVENTS [2]: 0 (0) n (%)
STUDY DISCONTINUATIONS DUE TO ADVERSE EVENTS [2]: 0 (0) n (%)
Serious adverse events (all adverse events) [2]: 0 (0) n (%)
Serious adverse events (treatment-related) [2]: 0 (0) n (%)
DEATHS ON STUDY [2]: 0 (0) n (%)
ALL ADVERSE EVENTS [3]: 15 (79) n (%)
ALL TREATMENT-RELATED ADVERSE EVENTS [3]: 3 (16) n (%)
INVESTIGATIONAL PRODUCT DISCONTINUATIONS DUE TO ADVERSE EVENTS [3]: 1 (5) n (%)
STUDY DISCONTINUATIONS DUE TO ADVERSE EVENTS [3]: 0 (0) n (%)
Serious adverse events (all adverse events) [3]: 1 (5) n (%)
Serious adverse events (treatment-related) [3]: 0 (0) n (%)
DEATHS ON STUDY [3]: 0 (0) n (%)
relationship between subject incidence of adverse events and dose (0.3 to 3 mg/kg): No relationship was apparent
highest alanine aminotransferase [ALT] (1 subject, 0.3 mg/kg): 1.7 times the upper limit of normal (ULN)
highest alkaline phosphatase [AP] (1 subject, 0.3 mg/kg): 1.5 times the upper limit of normal (ULN)
highest aspartate aminotransferase [AST] (1 subject, 0.3 mg/kg): 2.2 times the upper limit of normal (ULN)
injection site bruising, subject incidence (2/31): 6%
subjects discontinued because of adverse events (erythema of the abdomen) (3-mg/kg dose cohort, after the second dose): 1 subject
serious adverse events (syncope), number (3-mg/kg dose cohort, considered unrelated to treatment): 1
contusion, subject incidence (3/31): 10%
diarrhea, subject incidence (4/31): 13%
fatigue, subject incidence (4/31): 13%
tolerability (4 weekly SC doses, as high as 3.0 mg/kg): generally well tolerated
subjects with treatment-related adverse events (AMG 745 at any dose, 7 of 31 subjects): 23%
subjects with adverse events (AMG 745 at any dose, 25 of 31 subjects): 81%
ALL ADVERSE EVENTS (All AMG 745 Subjects (N = 31)): 25 (81) n (%)
ALL TREATMENT-RELATED ADVERSE EVENTS (All AMG 745 Subjects (N = 31)): 7 (23) n (%)
INVESTIGATIONAL PRODUCT DISCONTINUATIONS DUE TO ADVERSE EVENTS (All AMG 745 Subjects (N = 31)): 1 (3) n (%)
STUDY DISCONTINUATIONS DUE TO ADVERSE EVENTS (All AMG 745 Subjects (N = 31)): 0 (0) n (%)
Serious adverse events (all adverse events) (All AMG 745 Subjects (N = 31)): 1 (3) n (%)
Serious adverse events (treatment-related) (All AMG 745 Subjects (N = 31)): 0 (0) n (%)
DEATHS ON STUDY (All AMG 745 Subjects (N = 31)): 0 (0) n (%)
fasting plasma glucose, insulin, cholesterol, LDL, HDL, triglycerides vs placebo (human, in vivo): no apparent differences between treatment groups
